B1: GST-ARF-BP1 (3760-4374) (protein)
chain: IQAAVRQLEAEADAIIQMVREGQRARRQQQAATSESSQSEASVRREESPMDVDQPSPSAQDTQSIASDGTPQGEKEKEERPPELPLLSEQLSLDELWDMLGECLKELEESHDQHAVLVLQPAVEAFFLVHATERESKPPVRDTRESQLAHIKDEPPPLSPAPLTPATPSSLDPFFSREPSSMHISSSLPPDTQKFLRFAETHRTVLNQILRQSTTHLADGPFAVLVDYIRVLDFDVKRKYFRQELERLDEGLRKEDMAVHVRRDHVFEDSYRELHRKSPEEMKNRLYIVFEGEEGQDAGGLLREWYMIISREMFNPMYALFRTSPGDRVTYTINPSSHCNPNHLSYFKFVGRIVAKAVYDNRLLECYFTRSFYKHILGKSVRYTDMESEDYHFYQGLVYLLENDVSTLGYDLTFSTEVQEFGVCEVRDLKPNGANILVTEENKKEYVHLVCQMRMTGAIRKQLAAFLEGFYEIIPKRLISIFTEQELELLISGLPTIDIDDLKSNTEYHKYQSNSIQIQWFWRALRSFDQADRAKFLQFVTGTSKVPLQGFAALEGMNGIQKFQIHRDDRSTDRLPSAHTCFNQLDLPAYESFEKLRHMLLLAIQECSEGFGLA
Sequence of Flag-p53, P04637 (P04637 whole entry, looked up): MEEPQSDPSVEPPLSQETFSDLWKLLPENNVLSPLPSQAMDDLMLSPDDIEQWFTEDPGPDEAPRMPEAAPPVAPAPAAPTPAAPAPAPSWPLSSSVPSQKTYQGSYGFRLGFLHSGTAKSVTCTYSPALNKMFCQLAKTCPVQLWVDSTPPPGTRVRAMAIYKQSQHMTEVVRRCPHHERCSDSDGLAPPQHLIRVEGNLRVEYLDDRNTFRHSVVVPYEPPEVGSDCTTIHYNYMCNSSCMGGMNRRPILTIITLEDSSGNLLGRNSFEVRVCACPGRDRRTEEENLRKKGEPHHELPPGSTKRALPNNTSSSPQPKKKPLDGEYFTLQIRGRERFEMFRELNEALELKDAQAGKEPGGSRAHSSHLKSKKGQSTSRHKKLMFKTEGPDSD
Sequence of GST-B23 protein, P06748 (P06748 whole entry): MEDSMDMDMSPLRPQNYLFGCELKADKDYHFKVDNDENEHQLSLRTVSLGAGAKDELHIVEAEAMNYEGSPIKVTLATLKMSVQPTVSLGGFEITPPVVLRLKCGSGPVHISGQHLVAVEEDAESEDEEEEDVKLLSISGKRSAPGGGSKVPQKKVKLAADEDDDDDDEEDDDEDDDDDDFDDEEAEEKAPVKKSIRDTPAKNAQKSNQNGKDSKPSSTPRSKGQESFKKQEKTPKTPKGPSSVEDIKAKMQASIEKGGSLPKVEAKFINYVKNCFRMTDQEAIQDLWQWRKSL
In the case of B1, the “NPM/B23 ubiquitination, in vitro ubiquitination assay” value (GST-B23 protein, P06748) is reported as “no significant ubiquitination of NPM/B23 was detected by Western blot analysis with the anti-NPM/B23 antibody” and the “p53 ubiquitination, in vitro ubiquitination assay with purified components” value (Flag-p53, P04637) is reported as “high levels of ubiquitinated p53 were generated by ARF-BP1 (lane 2)”.

Source: patent publication US20060088847
